Several values for one entry are separate records, joined by “and”; a condition that tells them apart may be missing. Identical values can stand only once.

Usually stoichiometry N stands for the number of molecules, sites or subunits per partner or assembly.

The data set concerns the molecule itself. Kind of data set: SEC; Superose 6 gel filtration of purified PAN, before heating. Background: Size exclusion chromatography separates by hydrodynamic size, large species first.

B1: PAN (proteasome activating nucleotidase) unfoldase from Methanocaldococcus jannaschii (enzyme, UniProt Q58576 1-430, looked up)
chain: MVFEEFISTELKKEKKAFTEEFKEEKEINDNSNLKNDLLKEELQEKARIAELESRILKLELEKKELERENLQLMKENEILRRELDRMRVPPLIVGTVVDKVGERKVVVKSSTGPSFLVNVSHFVNPDDLAPGKRVCLNQQTLTVVDVLPENKDYRAKAMEVDERPNVRYEDIGGLEKQMQEIREVVELPLKHPELFEKVGIEPPKGILLYGPPGTGKTLLAKAVATETNATFIRVVGSELVKKFIGEGASLVKDIFKLAKEKAPSIIFIDEIDAIAAKRTDALTGGDREVQRTLMQLLAEMDGFDARGDVKIIGATNRPDILDPAILRPGRFDRIIEVPAPDEKGRLEILKIHTRKMNLAEDVNLEEIAKMTEGCVGAELKAICTEAGMNAIRELRDYVTMDDFRKAVEKIMEKKKVKVKEPAHLDVLYR
notes: Purified as a mixture of dodecamers and hexamers; Monodisperse hexamers were obtained after heating at 60 °C with ATP and MgCl2; Perdeuterated PAN (dPAN) was used for the SANS data on PAN; also called MjPAN; PAN complex
For B1, the “stoichiometry N” value is 12 and 6.

The values are drawn from paper PMC5244417, “Time-resolved neutron scattering provides new insight into protein substrate processing by a AAA+ unfoldase” (Scientific Reports, 2017).
